In patent US20180057581A1 (MorphoSys, published 2018):

Tests used:
Serum albumin (human) = Serum albumin (human) (human, UniProt P02768 25-609); assay: MSD specificity profiling, coated protein, Camille at 10 nM
Description: (§1) For this specificity profiling test the different proteins and controls were coated on two 384-well MSD plates with a concentration of 1 μg/ml at 4° C. over night. Plates were blocked with BSA and washed three times with PBS with 0.05% (v/v) Tween 20. Antibody samples were diluted to 100 nM and 10 nM in assay buffer (PBS with 0.5% (w/v) BSA, 0.05% (v/v) Tween 20). […] Samples and controls were incubated for three hours at room temperature. The plates were washed three times and 30 μl detection antibody (ECL-labeled anti-human Fab) were added per well and incubated for 1 h. After washing, MSD Read Buffer T with surfactant was added and electrochemiluminescence signals were detected using a Sector Imager 6000 (Meso Scale Discovery, Gaithersburg, Md., USA).

Transferrin (bovine) = Transferrin (bovine) (bovine, UniProt Q29443 20-704); assay: as above
Chain of Transferrin (bovine) (Q29443 20-704 limits assumed): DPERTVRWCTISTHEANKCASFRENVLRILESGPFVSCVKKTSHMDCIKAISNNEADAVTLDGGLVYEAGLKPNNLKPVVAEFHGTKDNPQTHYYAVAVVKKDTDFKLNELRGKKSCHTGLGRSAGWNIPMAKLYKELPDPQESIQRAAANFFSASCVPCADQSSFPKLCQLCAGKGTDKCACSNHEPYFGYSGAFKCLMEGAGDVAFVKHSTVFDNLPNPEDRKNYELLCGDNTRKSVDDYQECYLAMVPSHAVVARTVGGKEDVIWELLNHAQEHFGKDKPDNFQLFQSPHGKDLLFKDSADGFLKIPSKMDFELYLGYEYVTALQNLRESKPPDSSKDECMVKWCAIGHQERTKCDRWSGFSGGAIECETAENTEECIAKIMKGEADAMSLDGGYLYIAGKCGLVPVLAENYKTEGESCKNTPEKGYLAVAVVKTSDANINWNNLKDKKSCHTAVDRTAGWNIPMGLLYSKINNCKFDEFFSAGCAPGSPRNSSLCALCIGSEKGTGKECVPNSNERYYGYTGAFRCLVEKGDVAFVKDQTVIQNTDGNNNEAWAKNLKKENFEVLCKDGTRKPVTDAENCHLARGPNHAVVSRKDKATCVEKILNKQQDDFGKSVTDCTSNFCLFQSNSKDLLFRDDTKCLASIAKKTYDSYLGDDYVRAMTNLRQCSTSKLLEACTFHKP
Description: as §1

[1] = biological target: Cell surface receptor 1 (human) (human); assay: as above
Description: as §1

[2] = biological target: Trypsin inhibitor (Soybean) (Soybean); assay: as above
Chain of Trypsin inhibitor (Soybean) (Soybean) (P01070 25-205): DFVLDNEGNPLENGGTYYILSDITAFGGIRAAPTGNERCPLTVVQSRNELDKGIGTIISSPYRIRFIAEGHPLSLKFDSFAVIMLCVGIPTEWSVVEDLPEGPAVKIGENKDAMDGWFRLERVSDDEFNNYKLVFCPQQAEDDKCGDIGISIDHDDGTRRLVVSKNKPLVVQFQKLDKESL
Description: as §1

Trypsinogen (cow) = biological target: T1, Trypsinogen (cow) (cow, UniProt P00760 18-246); assay: as above
T1 sequence (looked up): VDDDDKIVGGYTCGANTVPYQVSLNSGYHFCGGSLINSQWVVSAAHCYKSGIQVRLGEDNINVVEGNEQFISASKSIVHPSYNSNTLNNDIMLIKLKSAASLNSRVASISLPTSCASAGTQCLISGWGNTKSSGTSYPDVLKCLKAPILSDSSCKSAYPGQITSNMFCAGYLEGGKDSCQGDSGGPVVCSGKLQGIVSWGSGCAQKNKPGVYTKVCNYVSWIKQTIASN
Description: as §1

RNase B (cow) = biological target: T2, RNase B (cow) (cow, UniProt P61823 27-150); assay: as above
T2 sequence (looked up): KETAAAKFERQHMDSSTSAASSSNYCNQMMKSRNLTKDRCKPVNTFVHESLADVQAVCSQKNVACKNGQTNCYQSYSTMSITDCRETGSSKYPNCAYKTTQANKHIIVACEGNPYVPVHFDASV
Description: as §1

[3] = biological target: Anti-human Fab (Dianova, # 109-005-097); assay: as above
Description: as §1

human M-CSF = biological target: T3, human M-CSF (human, UniProt P09603 33-255, limits assumed); assay: MSD specificity profiling, coated protein, Camille at 100 nM
T3 construct: also called M-CSF (human); CSF-1
T3 sequence: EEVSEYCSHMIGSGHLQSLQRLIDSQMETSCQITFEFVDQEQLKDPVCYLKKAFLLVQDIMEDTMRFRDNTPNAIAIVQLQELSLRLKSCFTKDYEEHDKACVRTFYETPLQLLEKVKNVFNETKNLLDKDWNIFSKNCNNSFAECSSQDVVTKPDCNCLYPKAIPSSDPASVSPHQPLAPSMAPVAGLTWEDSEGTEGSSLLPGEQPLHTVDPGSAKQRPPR
Description: as §1

[4] = biological target: Aminogylcosidase (Aspergillus niger) (Aspergillus niger); assay: as above
Chain of Aminogylcosidase (Aspergillus niger) (Aspergillus niger) (P69328 25-640): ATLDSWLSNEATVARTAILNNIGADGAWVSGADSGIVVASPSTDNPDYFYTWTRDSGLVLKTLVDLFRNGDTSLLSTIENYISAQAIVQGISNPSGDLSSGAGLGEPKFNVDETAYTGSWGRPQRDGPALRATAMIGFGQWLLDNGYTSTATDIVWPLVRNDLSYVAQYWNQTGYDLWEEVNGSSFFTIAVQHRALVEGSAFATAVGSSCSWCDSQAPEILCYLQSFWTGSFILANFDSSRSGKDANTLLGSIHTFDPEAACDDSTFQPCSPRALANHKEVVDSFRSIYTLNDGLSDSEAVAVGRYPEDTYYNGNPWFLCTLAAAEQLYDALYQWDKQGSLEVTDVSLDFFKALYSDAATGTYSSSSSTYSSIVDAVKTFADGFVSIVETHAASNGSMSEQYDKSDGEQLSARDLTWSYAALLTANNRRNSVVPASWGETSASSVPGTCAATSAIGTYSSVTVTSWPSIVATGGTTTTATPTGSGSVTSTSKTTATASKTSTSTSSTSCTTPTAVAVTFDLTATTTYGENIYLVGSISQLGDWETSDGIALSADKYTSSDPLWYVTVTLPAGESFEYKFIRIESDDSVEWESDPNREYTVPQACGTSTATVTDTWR
Description: as §1

Ovalbumin (chicken) = biological target: T4, Ovalbumin (chicken) (chicken, UniProt P01012 2-386); assay: as above
T4 sequence (looked up): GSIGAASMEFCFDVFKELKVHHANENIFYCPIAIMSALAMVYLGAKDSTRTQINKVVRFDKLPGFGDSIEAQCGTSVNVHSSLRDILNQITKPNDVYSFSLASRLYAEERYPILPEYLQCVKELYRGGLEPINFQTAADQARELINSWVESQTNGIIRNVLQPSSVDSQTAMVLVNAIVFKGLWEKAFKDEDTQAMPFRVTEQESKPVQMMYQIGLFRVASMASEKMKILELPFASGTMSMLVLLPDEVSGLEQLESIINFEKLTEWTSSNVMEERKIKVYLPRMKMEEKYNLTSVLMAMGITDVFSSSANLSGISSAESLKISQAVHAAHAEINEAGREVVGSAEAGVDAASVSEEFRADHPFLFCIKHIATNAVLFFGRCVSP
Description: as §1

B1: Camille (format not stated) (antibody, V domains shown)
VH: QVQLQQSGPGLVKPSQTLSLTCAISGESVSTSSAAWNWIRQSPSRGLEWLGRTYYRSKWKHEYAVSVKSRITINPDTSKNQFSLQLNSVTPEDTAVYYCARDRYYYSAFDYWGQGTLVTVSS
VL: QSALTQPASVSGSPGQSITISCTGTSSDVGGYNSVSWYQQHPGKAPKLLIYAVSNRPSGVSNRFSGSKSGNTASLTISGLQAEDEADYYCASYDERFTRVFGGGTKLTVLG
notes: also called Antibody Camille
Serum albumin (human)
  signal normalized to reference antibody MOR03207: 1 ratio
Transferrin (bovine)
  signal normalized to reference antibody MOR03207: 1 ratio
[1]
  signal normalized to reference antibody MOR03207: 1 ratio
[2]
  signal normalized to reference antibody MOR03207: 1 ratio
Trypsinogen (cow)
  signal normalized to reference antibody MOR03207: 1 ratio
RNase B (cow)
  signal normalized to reference antibody MOR03207: 1 ratio
[3]
  signal normalized to reference antibody MOR03207: 1 ratio
Human M-CSF
  signal normalized to reference antibody MOR03207: 24 ratio
[4]
  signal normalized to reference antibody MOR03207: 1 ratio
Ovalbumin (chicken)
  signal normalized to reference antibody MOR03207: 1 ratio
